Patent US20120289467A1 (UNIVERSITY OF MARYLAND BALTIMORE, published 2012)
Blank lines part the entries; values can stand above or below the binder they belong to. No end group written: not given here.

Key:
[1] = target: T1, VE-cadherin fragment, P33151; assay: plate assay read as absorbance at 450 nm, VE-cad(1-5) concentration varied (0-0.5 µM); format not described in the text
T1 chain: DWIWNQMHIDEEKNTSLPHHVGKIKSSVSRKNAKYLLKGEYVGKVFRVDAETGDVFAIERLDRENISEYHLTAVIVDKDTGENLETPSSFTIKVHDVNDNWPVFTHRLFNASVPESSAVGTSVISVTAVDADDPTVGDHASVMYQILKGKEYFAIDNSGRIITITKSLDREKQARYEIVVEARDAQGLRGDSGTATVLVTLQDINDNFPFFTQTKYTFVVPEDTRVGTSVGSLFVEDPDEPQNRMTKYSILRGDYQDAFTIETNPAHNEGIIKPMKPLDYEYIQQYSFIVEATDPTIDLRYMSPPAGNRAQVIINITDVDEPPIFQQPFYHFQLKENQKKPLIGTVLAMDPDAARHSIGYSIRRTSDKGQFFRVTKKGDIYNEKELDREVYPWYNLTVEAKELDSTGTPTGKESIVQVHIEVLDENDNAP

[2] = target: T2, VE-cadherin fragment (UniProt P33151 48-477, limits assumed); assay: SPR (BIAcore), VE-cadherin fragment immobilized; monomeric peptide
T2 construct: also called VE-caherin; immobilized VE-cadherin fragment
T2 sequence (looked up): T1 chain
Method: (§1) To test binding activities of fibrin beta chain derived peptides of the invention to VE-caherin, surface plasmon resonance (SPR) methods are, for example, used. SPR experiments are performed using, for example, a BIAcore 3000 biosensor (BIAcore AB, Uppsala, Sweden), which can be used to measure the association/dissociation of peptides or proteins in real-time (see, for example, Karlsson, R., and Falt, A. J. Immunol. Methods (1997) 200, 121-133; Hall, D. Anal. Biochem. (2001) 288, 109-125; see also Gorlatov et al. Biochemistry (2002) 41, 4107-4116 for other VE-cadherin binding assays including, for example, SPR IAsys Analysis based assays and ELISA based assays). An exemplary method is described in the following passage. VE-cadherin fragment is covalently coupled via epsilon-amino groups to the activated surface of a CM5 biosensor chip by the procedure described by, for example, Karlsson, R., and Falt, A. (J. Immunol. Methods (1997) 200, 121-133; see also Gorlatov et al. Biochemistry (2002) 41, 4107-4116). […] Samples comprising, for example, fibrin beta chain derived peptides β15-42, β15-64, and (β15-66)2, at different concentrations are injected in duplicate in at least three separate experiments and the association/dissociation between the immobilized and the added peptides is monitored as the change in the SPR response. […]

[3] = target: T2, VE-cadherin fragment; assay: not stated on the sheet; the legend calls it the dissociation constant for the interaction with VE-cadherin
[4] = target: T2, VE-cadherin fragment; assay: SPR (BIAcore), ratio of Kd values, reference β15-42
Method: as §1

[5] = target: T2, VE-cadherin fragment; assay: not stated on the sheet; the legend calls it the dissociation constant for the interaction with VE-cadherin; remark: listed apart in the source
[6] = target: T2, VE-cadherin fragment; assay: SPR (BIAcore), VE-cadherin fragment immobilized, peptide added up to 200 nM; dimeric peptide, added up to 200 nM
Method: as §1

Binder: GHRPLDKKREEAPSLRPAPPPISYCG (also: homodimer linked through added Cys25) [(β15-40)2 dimer peptide]
EC50 (read off the curve) [1]: 0.04 µM

B1: (β15-44)2 dimer peptide (peptide)
peptide: GHRPLDKKREEAPSLRPAPPPISGGGYRCG
modifications: also: homodimer, Cys43-Cys43 disulfide
notes: Synthetic homodimer of two identical 30-residue chains, linked by a Cys43-Cys43 disulfide bond; also called dimeric (β15-44)2
Kd [3]: 21 nM

Now from value to binder:

Kd [2]: 252 µM
Binder: GHRPLDKKREEAPSLRPAPPPISGGGYR (also called monomeric β15-42) [β15-42 monomeric peptide]

fold increase in affinity against β15-42 [4]: 3600 fold | Kd [5]: 27 nM | Kd [6]: 70 nM
B2: (β15-66)2 dimer peptide (peptide)
peptide: GHRPLDKKREEAPSLRPAPPPISGGGYRARPAKAAATQKKVERKAPDAGGCG
modifications: also: homodimer, Cys65-Cys65 disulfide
notes: Homodimer of two β15-66 chains, disulfide-linked via Cys65; Gly66 is not natural; also called dimeric (β15-66)2
